One block for each binder: values may come before it.
What was measured:
[1] = biological target: T1, high affinity trimeric IL-2R (IL-2Rα, IL-2Rβ and IL-2Rγ) on HEK-Blue IL-2 cells (UniProt P01589 22-272; P14784 27-551; P31785 23-369); assay: cell-based or functional assay
T1 sequence (looked up) 1: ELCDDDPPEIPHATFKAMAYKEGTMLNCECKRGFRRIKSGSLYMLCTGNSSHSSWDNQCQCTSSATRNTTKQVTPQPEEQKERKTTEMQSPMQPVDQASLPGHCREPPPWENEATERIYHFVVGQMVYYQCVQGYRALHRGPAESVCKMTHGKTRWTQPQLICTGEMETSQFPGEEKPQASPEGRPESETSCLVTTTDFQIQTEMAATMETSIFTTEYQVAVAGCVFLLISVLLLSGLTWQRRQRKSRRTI
T1 sequence (looked up) 2: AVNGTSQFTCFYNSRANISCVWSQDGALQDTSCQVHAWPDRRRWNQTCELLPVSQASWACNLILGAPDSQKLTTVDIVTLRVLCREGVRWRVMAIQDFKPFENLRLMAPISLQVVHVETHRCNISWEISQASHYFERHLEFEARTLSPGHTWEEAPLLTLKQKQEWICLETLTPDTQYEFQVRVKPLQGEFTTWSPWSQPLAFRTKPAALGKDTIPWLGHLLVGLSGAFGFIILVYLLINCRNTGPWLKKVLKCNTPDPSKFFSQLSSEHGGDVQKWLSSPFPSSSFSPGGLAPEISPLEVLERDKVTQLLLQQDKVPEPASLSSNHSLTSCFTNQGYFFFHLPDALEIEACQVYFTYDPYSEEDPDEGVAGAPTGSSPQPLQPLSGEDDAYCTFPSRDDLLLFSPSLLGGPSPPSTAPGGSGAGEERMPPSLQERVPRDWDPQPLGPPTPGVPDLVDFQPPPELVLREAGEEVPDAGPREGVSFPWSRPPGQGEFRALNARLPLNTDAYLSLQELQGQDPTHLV
T1 sequence (looked up) 3: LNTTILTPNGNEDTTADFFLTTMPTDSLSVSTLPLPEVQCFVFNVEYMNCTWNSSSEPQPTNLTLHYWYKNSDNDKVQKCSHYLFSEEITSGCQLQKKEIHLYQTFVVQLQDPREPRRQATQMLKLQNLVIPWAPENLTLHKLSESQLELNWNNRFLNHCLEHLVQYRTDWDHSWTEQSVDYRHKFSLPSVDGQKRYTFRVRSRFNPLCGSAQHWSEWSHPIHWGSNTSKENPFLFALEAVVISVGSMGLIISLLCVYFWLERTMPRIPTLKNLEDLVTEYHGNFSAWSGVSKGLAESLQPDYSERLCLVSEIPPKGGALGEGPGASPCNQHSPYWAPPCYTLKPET

[2] = biological target: T2, low-moderate affinity dimeric IL-2R (IL-2Rβ and IL-2Rγ) on HEK-Blue CD122/CD132 cells (UniProt P14784 27-551; P31785 23-369, limits assumed); assay: cell-based or functional assay
T2 sequence (looked up) 1: T1 sequence (looked up) 2
T2 sequence (looked up) 2: T1 sequence (looked up) 3

[3] = biological target: T3, CD47 at the surface of Peak cells (human, UniProt Q08722 19-323); assay: flow cytometry, Peak cells, after MMP-9 treatment
T3 construct: whole, on cells; also called cell surface CD47
Experimental: (§1) Binding activity of antibody-cytokine/receptor fusions before and after cleavage was also evaluated by flow cytometry. Peak cells derived from HEK 293 which are human cells expressing CD47 were used to evaluate masking efficacy and binding recovery to CD47 by flow cytometry. Peak cells were diluted in cold FACS buffer (PBS, 2% BSA) to 1.2×10⁶ cells/mL. 3×10⁵ cells/well were added in a 96 well V-bottom plate. The plate was then centrifugated for 5 min at 1300 rpm, 4° C. Supernatants were removed and cells were washed twice using FACS buffer. A serial dilution of antibody-cytokine/receptor fusions previously digested with MMP-9 or not digested as described above was prepared in FACS buffer. An irrelevant antibody was included. Then, 150 μL of each diluted antibody were added in corresponding well and incubated for 30 min at 4° C. Cells were washed twice with FACS buffer and 100 μL of a mouse anti human Fc-PE conjugated secondary antibody were added and the plate was incubated for 20 min at 4° C. Cells were then washed twice with FACS buffer. Finally, 150 μL of SYTOX blue dead cell stain (ThermoFisher) diluted to 1/5000 in FACS buffer were added before detection by flow cytometry with Cytoflex (Beckman Coulter). Acquisition was performed with 10000 events for each well. Data were analyzed by FlowJo software.

[4] = biological target: T4, His-tagged human CD47 (human, UniProt Q08722 19-139, limits assumed); assay: BLI, His-CD47 on HIS1K sensor, after MMP-9 treatment
T4 construct: loaded on HIS1K biosensors at 2.5 µg/mL; also called target antigen; not shown: His tag
Experimental: (§2) The capacity of the masking domains to inhibit binding activity of the antibody was evaluated by Bio-Layer Interferometry (BLI). […] Binding experiments were performed to evaluate the masking efficiency and the binding recovery after cleavage of the masking domains. BLI was performed on an Octet RED96 system (Sartorius). His-tagged human CD47 was diluted at 2.5 μg/mL in Kinetic Buffer (KB) (Sartorius) and loaded on HIS1K biosensors (anti-His tag antibody biosensors, Sartorius) for 300 seconds. Loaded biosensors were dipped into antibodies diluted at 15 μg/mL in KB for 300 seconds to monitor association. Then, biosensors were transferred in KB for dissociation for 60 seconds. Binding profiles were then analyzed with ForteBio Data Analysis software.

[5] = biological target: T4, His-tagged human CD47; assay: BLI, His-CD47 on HIS1K sensor, antibody 15 µg/mL
Experimental: as §2

[6] = biological target: T3, CD47 at the surface of Peak cells; assay: flow cytometry, Peak cells, before cleavage
Experimental: as §1

[7] = biological target: T3, CD47 at the surface of Peak cells; assay: flow cytometry, Peak cells; EC50 before / EC50 after cleavage
Experimental: as §1

- EC50 after cleavage IL-2, HEK Blue IL-2 αβγ reporter assay [1]: 0.04 nM
- EC50 after cleavage IL-2, HEK Blue IL-2 βγ reporter assay [2]: 0.02 nM
- EC50 [3]: 2.6 nM
- Binding after cleavage (BLI) [4]: 1.1 nm
B1: Construct No 880 after cleavage by MMP-9 (antibody)
light: DIQMTQSPSSLSASVGDRVTITCNVDQVIANWLNWYQQKPGKAPKLLIYAASSLQSGVPSRFSGSGSGTDFTLTISSLQPEDFATYYCQQMHPRAPKQFGQGTKVEIKRTVAAPSVFIFPPSDEQLKSGTASVVCLLNNFYPREAKVQWKVDNALQSGNSQESVTEQDSKDSTYSLSSTLTLSKADYEKHKVYACEVTHQGLSSPVTKSFNRGEC
heavy: not shown
notes: MMP-9 digest of m34; the sample also holds the released IL-2Rγ-(GGGGS)2-IL-2 fusion (no cleavable linker between the two) and IL-2Rα; also called n880 after cleavage; not shown: remnant of CM1 and linker after MMP-9 cleavage

- Binding before cleavage (BLI) [5]: 2.3 nm
B2: pNOVI V2K K91_IL-2 CM1_VHCH (antibody, human IgG1, kappa)
light: B1 light
heavy: not shown
notes: masked K91 fusion, uncleaved; also called n13; construct No 13

- Binding before cleavage (BLI) [5]: 2.2 nm
B3: pNOVI V2K K91_IL-2 CM1_CM2_VHCH (antibody, human IgG1, kappa)
light: B1 light
heavy: not shown
notes: masked K91 fusion, uncleaved; also called n17; construct No 17

- EC50 after cleavage IL-2, HEK Blue IL-2 αβγ reporter assay [1]: 0.02 nM
- EC50 after cleavage IL-2, HEK Blue IL-2 βγ reporter assay [2]: 0.01 nM
- EC50 [3]: 0.7 nM
- Binding after cleavage (BLI) [4]: 1.6 nm
B4: Construct No 651 after cleavage by MMP-9 (antibody)
light: B1 light
heavy: not shown
notes: MMP-9 digest of m22; the sample also holds the released IL-2Rα, IL-2 and IL-2Rβ; also called n651 after cleavage; not shown: remnant of CM1 and linker after MMP-9 cleavage

- EC50 after cleavage IL-2, HEK Blue IL-2 αβγ reporter assay [1]: 0.02 nM
- EC50 after cleavage IL-2, HEK Blue IL-2 βγ reporter assay [2]: 0.01 nM
- EC50 [3]: 0.5 nM
- Binding after cleavage (BLI) [4]: 1.7 nm
B5: Construct No 770 after cleavage by MMP-9 (antibody)
light: B1 light
heavy: not shown
notes: MMP-9 digest of m28; the sample also holds the released IL-2Rα, IL-2 C125S and IL-2Rβ; also called n770 after cleavage; not shown: remnant of CM1 and linker after MMP-9 cleavage

- EC50 after cleavage IL-2, HEK Blue IL-2 αβγ reporter assay [1]: 0.01 nM
- EC50 after cleavage IL-2, HEK Blue IL-2 βγ reporter assay [2]: 0.01 nM
- Binding after cleavage (BLI) [4]: 1.7 nm
B6: Construct No 830 after cleavage by MMP-9 (antibody)
light: DIQMTQSPSSLSASVGDRVTITCRASQSISSYLNWYQQKPGKAPKLLIYAASSLQSGVPSRFSGSGSGTDFTLTISSLQPEDFATYYCQQFHKRSPQKFGQGTKVEIKRTVAAPSVFIFPPSDEQLKSGTASVVCLLNNFYPREAKVQWKVDNALQSGNSQESVTEQDSKDSTYSLSSTLTLSKADYEKHKVYACEVTHQGLSSPVTKSFNRGEC
heavy: not shown
notes: MMP-9 digest of m27 (K33); the sample also holds the released IL-2Rα, IL-2 and IL-2Rβ; also called n830 after cleavage; not shown: remnant of CM1 and linker after MMP-9 cleavage

- Binding before cleavage (BLI) [5]: 1.3 nm
B7: pNOVI V2K K33 (antibody, human IgG1, kappa)
light: B6 light
heavy: not shown
notes: also called n22; construct No 22

- EC50 before cleavage IL-2, HEK Blue IL-2 αβγ reporter assay [1]: 0.07 nM
- EC50 ratio (BC/AC), HEK Blue IL-2 αβγ reporter assay [1]: 1
- EC50 before cleavage IL-2, HEK Blue IL-2 βγ reporter assay [2]: 0.12 nM
- EC50 ratio (BC/AC), HEK Blue IL-2 βγ reporter assay [2]: 4
- EC50 [6]: 8.7 nM
- Binding recovery (BC/AC) [7]: 20
- Binding before cleavage (BLI) [5]: 1.2 nm
B8: pNOVI V2K K91_IL-2Rα CM1_VKCK_IL-2_CM1_VHCH (antibody, human IgG1, kappa)
light: ELCDDDPPEIPHATFKAMAYKEGTMLNCECKRGFRRIKSGSLYMLCTGNSSHSSWDNQCQCTSSATRNTTKQVTPQPEEQKERKTTEMQSPMQPVDQASLPGHCREPPPWENEATERIYHFVVGQMVYYQCVQGYRALHRGPAESVCKMTHGKTRWTQPQLICTGEMETSQFPGEEKPQASPEGRPESETSCLVTTTDFQIQTEMAATMETSIFTTEGGGGSVHMPLGFLGPGGSDIQMTQSPSSLSASVGDRVTITCNVDQVIANWLNWYQQKPGKAPKLLIYAASSLQSGVPSRFSGSGSGTDFTLTISSLQPEDFATYYCQQMHPRAPKQFGQGTKVEIKRTVAAPSVFIFPPSDEQLKSGTASVVCLLNNFYPREAKVQWKVDNALQSGNSQESVTEQDSKDSTYSLSSTLTLSKADYEKHKVYACEVTHQGLSSPVTKSFNRGEC
heavy: not shown
notes: masked K91 fusion, uncleaved; also called n690; construct No 690

Reference: patent US20240254223A1 (NOVIMMUNE, published 2024)
